Assay results reported in patent US20230330242A1 (published 2023).

B1: ATX-P-885 (antibody, human IgG1, kappa, V domains shown)
VH: QVQLQQWGAGLLKPSETLSLTCAVYGGSFSGYYWSWIRQPPGKGLEWIGEINHSGSTNYNPSLKSRVTISVDTSKNQFSLKLSSVTAADTAVYYCAREGVYEDYWGQGTLVTVSS
VL: EIVLTQSPATLSLSPGERATLSCRASQSVSNYLAWYQQKPGQAPRLLIYDAYNRATGIPARFSGSGSGTDFTLTISSLEPEDFAVYYCQQRSNWPLTFGQGTRLEIKR
notes: Full length IgG (IgG1, kappa) expressed in HEK293; also called mAb B
B2: ATX-P-875 (antibody, human IgG1, kappa, V domains shown)
VH: not shown
VL: DIQMTQSPSSLSASVGDRVTITCRASQSISSYLNWYQQKPGKAPKLLIYAASSLQSGVPSRFSGSGSGTDFTLTISSLQPEDFATYYCQQYDNLPITFGQGTRLEIKR
notes: Full length IgG (IgG1, kappa) expressed in HEK293; also called mAb A

Legend:
[1] = target: T1, human ROR-1 endogenously expressed on JeKo-1 and MDA-MB-468 cells (human, UniProt Q01973 30-937); assay: cell-based or functional assay
Hu/Cy/Rh ROR1-His = target: T2, Hu/Cy/Rh ROR1-His (human/cyno/rhesus, UniProt Q01973 30-403, limits assumed); assay: SPR, purified protein
T2 construct: Purified His-tagged ROR1 protein; also called HUMAN/CYNO/RHESUS ROR-1; not shown: His tag

Mouse ROR1-His = target: T3, Mouse ROR1-His (mouse, UniProt Q9Z139 30-403, limits assumed); assay: SPR, purified protein
T3 construct: Purified His-tagged mouse ROR1 protein; not shown: His tag

[2] = target: T1, human ROR-1 endogenously expressed on …; assay: flow cytometry, cell binding saturation on ROR-1 positive cells
Description: A cell binding saturation assay was developed to evaluate how well the anti_ROR-1 antibodies developed in Example 28 bound to endogenously expressed extracellular ROR-1 protein on cell lines. […] Cells were then washed and subjected to secondary antibody staining and detection by flow cytometry. Mean fluorescence (MFI) was determined by analysis on cytometer software. […] (See FIG. 27).

T3 sequence (Q9Z139 30-403 limits assumed): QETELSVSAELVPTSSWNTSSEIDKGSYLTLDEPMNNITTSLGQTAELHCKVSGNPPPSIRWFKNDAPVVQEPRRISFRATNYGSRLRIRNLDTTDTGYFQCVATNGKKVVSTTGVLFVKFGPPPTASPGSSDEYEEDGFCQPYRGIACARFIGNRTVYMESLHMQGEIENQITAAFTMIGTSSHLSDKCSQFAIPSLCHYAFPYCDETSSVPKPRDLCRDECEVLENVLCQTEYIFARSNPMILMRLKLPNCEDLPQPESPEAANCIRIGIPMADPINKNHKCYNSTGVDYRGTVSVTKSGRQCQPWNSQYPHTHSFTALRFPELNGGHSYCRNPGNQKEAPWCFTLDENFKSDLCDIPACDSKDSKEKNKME

Binder | percent receptor internalization relative to zero hours [1] [%] | Kd (Hu/Cy/Rh ROR1-His) [nM] | koff (Hu/Cy/Rh ROR1-His) [s⁻¹] | kon (Hu/Cy/Rh ROR1-His) [M⁻¹ s⁻¹] | Kd (Mouse ROR1-His) [nM] | koff (Mouse ROR1-His) [s⁻¹] | kon (Mouse ROR1-His) [M⁻¹ s⁻¹] | saturating concentration [2] [nM]
B1 | ≥ 75 | 10.9 | 0.00295 | 270000 | 45.3 | 0.00132 | 29200 | 74
B2 |  |  |  |  |  |  |  | 74
